Results published in the DeepSol protein solubility set.

Test: soluble on expression in E. coli; label from the status in PepcDB or PDB records

Question: Which “soluble on expression in E. coli” value does the source give for “MKLMFASDIHGSLPATERVLERFAQSGARWLVILGDVLNHGPRNALPEGYAPAQVAERLNAVATQIIAVRGNCDSEVDQMLLHFPITAPWQQILTQERRLFLTHGHLFGPTNLPALHTGDVLVYGHTHLPVAQQQEGLYHFNPGSVSIPKGGYAASYGILDDNVLSVIALNDQSIIAQVAINS” here?
Answer: not soluble

Question: Which “soluble on expression in E. coli” value does the source give for “MEKSSSNFIQNGKRDHGGKLRQYNYKLEEAEYRYFTEERLFYRRRNPVEKIAQRIPKPQIEGTFTWSDELRCNYDGNTQFLPVEALEGCLPLEKLNQHLKPGFRLEVVVRPSLDPSITTKSPEIRWFGEVTAVCGFYVAIKFVGELNRRPCWFHMLSEDIFDIGSGLKQDPAMKWLQYRPLSLLKPMQCPKFWRRGSTPAPPVPRPTEEILDEFQAELHENRISEPKIFDQLRHLAHRPSRFRLNQRVELLNYLEPTEIRVARILRILGRRLMVMVTAQDYPEDLPSVEAKDRQVQHENVEFWVDESSFFLFPVGFAMINGLRTKATEGYLEHSRRIAEGSGTEKLNLLKVGQKFELLDPLSDLRQSFCVATIRKICKTPGFLIISPDETESDDESFPIHIDNHFMHPVGYAEKFGIKLDRLAGTEPGKFKWEGYLKEKQAEKIPDEMLRPLPSKERRHMFEFGRVLEAVGQNETYWISPASVEEVHGRTVLIEFQGWDSEFSELYDMDSHDLLPAGWCEFFNFKLRHPVLPVNDPNAENGEYD” here?
Answer: not soluble

Question: Which “soluble on expression in E. coli” value does the source give for “MRPTVVSMGKHFGNLGKMYGEHRFALAPNEQKAYKGFFDQAFVKTFKTYVWDQWYYYIPQTIGAYLLYDWAKKTNVAANRKNPADFANDQ” here?
Answer: not soluble

Question: Which “soluble on expression in E. coli” value does the source give for “HMFPARWHNYLQCGQVIKDSNLICFKTPLRPELFAYVTSEEDVWTAEQIVKQNPSIGAIIDLTNTSKYYDGVHFLRAGLLYKKIQVPGQTLPPESIVQEFIDTVKEFTEKCPGMLVGVHCTHGINRTGYMVCRYLMHTLGIAPQEAIDRFEKARGHKIERQNYVQDLLI” here?
Answer: soluble

Question: For “MGLSPSAPAVAVQASNASASPPSGCPMHEGKMKGCPVNTEPSGPTCEKKTYSVPAHQERAYEYVECPIRGTAAENKENLDPSNLMPPPNQTPAPDQPFALSTVREESSIPRADSEKKWVYPSEQMFWNAMLKKGWKWKDEDISQKDMYNIIRIHNQNNEQAWKEILKWEALHAAECPCGPSLIRFGGKAKEYSPRARIRSWMGYELPFDRHDWIINRCGTEVRYVIDYYDGGEVNKDYQFTILDVRPALDSLSAVWDRMKVAWWRWTS”, which “soluble on expression in E. coli” value is on record?
Answer: soluble

Question: With “MTARDYIWNADGEVGGINDKLRGCLVFSYDRSGWLTSRTGQMYDHDHYYYDKAGNLLTDEYQGAVMDNRLPGYGRDRYRYNEWGELTERRDQQLEWNAQGQLTRVISSNSETRYQYDALGRRISKATSNLHTDRGERSRTTFVWEGFRLLQETTWQGKRTYLYDAEQPYTPVAAITGRGESQKIWYYHTDLTGTVHEVTAPDGTLVWAGYQAGFGENRGDISNSGAYFEQPQRLPGQYFDEETGLHYNLFRYYAPECGRFVSQDPIGLNGGLNLYAYAPNPLGWIDPLGLNSLGIDSNNIFRGDGNYKGGGIGQPKSGTISAQDIIDHLLEHHHHHH” as the sequence, how does the “soluble on expression in E. coli” value read?
Answer: not soluble

Question: Which “soluble on expression in E. coli” value does the source give for “MGSDKIHHHHHHMKVKKWVTQDFPMVEESATVRECLHRMRQYQTNECIVKDREGHFRGVVNKEDLLDLDLDSSVFNKVSLPDFFVHEEDNITHALLLFLEHQEPYLPVVDEEMRLKGAVSLHDFLEALIEALAMDVPGIRFSVLLEDKPGELRKVVDALALSNINILSVITTRSGDGKREVLIKVDAVDEGTLIKLFESLGIKIESIEKEEGF” here?
Answer: soluble

Question: For “MAKTPVLLDRWGKPVKRAVLTEEISAATLGSVRSPITGYPADGLNPVRLASILREADAGDPVRYLELAETIEERDLHYLGVLGTRRRSVSQLDITVEAASDDPRDVEIADMIRDWLTRDELSDELFHMLDCIGKGYSFTEIIWDTSEGQWRPARLEWRDPRWFRFDRAALTTPLMLGPHGEELELTPFKFIFAEVKAKSGIALRSGLARAAAWAWMFKAFTQRDWAIFTQTYGQPLRLGRYGPGASEDDKATLFRAVANIAGDCAAIIPESMAIDFVETKSVGATADLYKQRADWLDQQISKAVLGQTATTDAVTGGLGSGKEHRQVQEDIERADAKALSGILNRDLIRPWVDLEYGPQARYPRLKIARPEPEDLKAMAEALAALVPIGLRVSQKKTRDRFGFDEPENDADVMGGTPAAAAVAAPPGADRPIKRFSGVFKGGEPPARPETALQAEAAPAALPASDDPAALLADRLAADAAPAMGAMIERVETMLAAAGSLAEFREMLLAGFPGIDAGDLATLMAQAMMAAHAGGRAAAEDAGA”, which “soluble on expression in E. coli” value is on record?
Answer: not soluble

Question: For “MSLGTAVLDLMANGVDMLCWADPFFPDPVLPEHISQAVIKSMENGSASHYTMPIGNPELKEKIALKLQRYNNLTVEAQRNILITPGSDSGLLFAMMPFINNDDEVLIHSPSYPSNFLNVELLGGKPISVELKAENNFQIDIKDFENKITEKTKMVILTNPNNPTGTVLRRESLQAIADFIIAHDLILVVDQAFEDAIFDEIEFISIASLPGMWERTVSVFSFSKGMGLSGFRVGYLVADAQIVDVLFGCTVNVVGATNTSSQAGMIAALDEPSFMGEYTQIFERRRKVVFEMMNAIPGVCMVMPESGFLSWIDISKLGTSTFICDYLLQHAHVMVNSGVPYGQGGEGYIRLVHGCYKDDEKLYAVLTRIQQALMQLAKEGHHHHHH”, which “soluble on expression in E. coli” value is on record?
Answer: not soluble

Question: Which “soluble on expression in E. coli” value does the source give for “MGSQKRLVQRVERKLEQTVGDAFARIFGGSIVPQEVEALLRREAADGIQSLQGNRLLAPNEYIITLGVHDFEKLGADPELKSTGFARDLADYIQEQGWQTYGDVVVRFEQSSNLHTGQFRARGTVNPDVETHPPVIDCARPQSNHAFGAEPGVAPMSDNSSYRGGQGQGRPDEYYDDRYARPQEDPRGGPDPQGGSDPRGGYPPETGGYPPQPGYPRPRHPDQGDYPEQIGYPDQGGYPEQRGYPEQRGYPDQRGYQDQGRGYPDQGQGGYPPPYEQRPPVSPGPAAGYGAPGYDQGYRQSGGYGPSPGGGQPGYGGYGEYGRGPARHEEGSYVPSGPPGPPEQRPAYPDQGGYDQGYQQGATTYGRQDYGGGADYTRYTESPRVPGYAPQGGGYAEPAGRDYDYGQSGAPDYGQPAPGGYSGYGQGGYGSAGTSVTLQLDDGSGRTYQLREGSNIIGRGQDAQFRLPDTGVSRRHLEIRWDGQVALLADLNSTNGTTVNNAPVQEWQLADGDVIRLGHSEIIVRMH” here?
Answer: soluble

Question: For “GRISMTVKKLYFIPAGRCMLDHSSVNSALTPGKLLNLPVWCYLLETEEGPILVDTGMPESAVNNEGLFNGTFVEGQILPKMTEEDRIVNILKRVGYEPDDLLYIISSHLHFDHAGGNGAFTNTPIIVQRTEYEAALHREEYMKECILPHLNYKIIEGDYEVVPGVQLLYTPGHSPGHQSLFIETEQSGSVLLTIDASYTKENFEDEVPFAGFDPELALSSIKRLKEVVKKEKPIIFFGHDIEQEKSCRVFPEYI”, which “soluble on expression in E. coli” value is on record?
Answer: soluble

Question: Which “soluble on expression in E. coli” value does the source give for “GMTRQRIAIDMDEVLADTLGAVVKAVNERADLNIKMESLNGKKLKHMIPEHEGLVMDILKEPGFFRNLDVMPHAQEVVKQLNEHYDIYIATAAMDVPTSFHDKYEWLLEYFPFLDPQHFVFCGRKNIILADYLIDDNPKQLEIFEGKSIMFTASHNVYEHRFERVSGWRDVKNYFNSIEK” here?
Answer: soluble

Question: For “MVTSTRARFGQFVHRRRRLLNLTQDEVTAAGGPSDAAQTRAENGTGPDPSIETLRKLDVALRWAPGSAARTLDGGHPTPLEALDGEDRSPAARPLTLGPSEIPLDLDTIIEILGPHTQITKLSAAHPEVPGLAEAAGELSRVVSKITGAYVTRLLEVNGGPTGPRQPLVEFAFGHLLEEPTTVTDPRELEEARYRRFLYGRGEDLDAATRERFWRRWEDAVKLVATEDPERSGDAEVNA”, which “soluble on expression in E. coli” value is on record?
Answer: not soluble

Question: With “MGSDKIHHHHHHMMGEFEAIRPYSDAEVPAVLQRLLSDDAFLGALVRYRFPRLAGPLGWLLKPLIAHRLAREVTGIRSVATLQDKFEPYVDHTIEKATDGVTYSGVNRLKPGCAYLFIANHRDIVMDPAFVNYAVYHAGLPTPRIAIGDNLLQKSFVSDLMRLNKSFIVHRSLSGRREKLAAYQTLSAYINHSIREDRQSVWIAQAEGRAKDGDDRTDSAILKMFHMSRKDEPFAEMVRALHFIPVSISYEYDPCDLAKARELHTRASTGEYRKAPGEDDASIALGITGYKGRVHINFGAELEGEFSDAKQLAAELDRQILGNYRLFPVHYLAYEMSENRDPGLAVPTAESLFGSEELEKARKEWNRRLEQCPAEQRSWLVLQYANPVLNQYRIKQQS” as the sequence, how does the “soluble on expression in E. coli” value read?
Answer: not soluble

Question: For “EQIVAAYDNSLLYTDHFLVRTIGMLRDMSDYDTAMIYLSDHGESLGEKGLYLHGMPYAIAPVEQTRVPMVIWFSKQFVQSRQIDLNCVHQRARQYADHDNLFSSVLGLMQVKTALYERPHDLFATCEK”, which “soluble on expression in E. coli” value is on record?
Answer: not soluble

Question: Which “soluble on expression in E. coli” value does the source give for “MAEQRWTGQLDLTVFNNGQSSKARNIFFEKALKVLRPIYLEQSPVPTFYIVNVGGGYLDGDRYRVNVNLEDNAQVTLTSQGATKIYKTPNDHVEQYQTFNLSNQSYMEFVADPIIAYENAKFFQHNTFNLKEDSAMFYTDILTPGYSSNGQDFTYNYMHLINEIYIDNQLVVFDNMMLSPDKSRLDGIGYMENYTHLGSAYFIHPDVNQSFIDDIYAAVADFQKQYDCRIGISQLPTHGLAVRILTKRTQIIEEILTRVQSYINQTIYHRQINFLRKYLEHHHHHH” here?
Answer: not soluble

Question: With “MSLTASSSEEKADKSQELVIYSNSVSNGRGDWLTAKAKEAGFNIKMVDIAGAQLADRVIAEKNNAVADMVFGIGAVDSNKIRDQKLLVQYKPKWLDKIDQSLSDKDNYYNPVIVQPLVLIGAPDVKEMPKDWTELGSKYKGKYSIYGLQGGTGRAILASILVRYLDEKGDLGVSEKGWEVAKEYFANAYTLQKGESSVVKALDKESPIQYGMIWGSGALIGQKEQNVEFKVMTPEIGVPFVTEQTMVLSTSKKQALAKEFIDWFGQSEIQVEYSKKFGSIPANKDALKELPEDTKKFVDQVKPQNIDWEAVGKHLDEWVEKAELEYVKEGHHHHHH” as the sequence, how does the “soluble on expression in E. coli” value read?
Answer: soluble

Question: With “MGSDKIHHHHHHMAHHAAPPINTTKFPIDRWWVAALSSELTDKPVARTLLGRPVVLFRLPSGEVGALEDRCCHKSLPLSCGSLEVRGLRCGYHGLLFDRDGACVEIPGQDRIPAKACVASYPVREQDAIVWIWIGAEAHAEPTCAPPRYPFHSDPQYRFGGGHYHYDAPYQLIHDNLMDLSHLGYVHLKTIGGNASLHMGAETRVSTDGDTVTLVRRMPDSEPPPTYTAAWPFAGRVDRWQEIEFHVSHIRIWTGAMDAGTGDLHDPARGGFHMRGFHGITPETETTTHYFWTVATNPQHDIERVARTVIEQSAATFDEDKTVIEAQYRNQLRFPDRRQIDIHVDAGPNRARRVIERLLLQPEPA” as the sequence, how does the “soluble on expression in E. coli” value read?
Answer: not soluble

Question: For “MATSKLQAIWNHPAGPKTIHFWAPTFKWGISIANIADFAKPPEKLSYPQQIAVTCTGVIWSRYSMVINPKNWNLFSVNVAMAGTGIYQLARKIKHDYATEAEPAVASE”, which “soluble on expression in E. coli” value is on record?
Answer: soluble

Question: Which “soluble on expression in E. coli” value does the source give for “MKIFLENLYHSDCYFLPIRDNQQVLVGVELITHFSSEDGTVRIPTSRVIAQLTEEQHWQLFSEQLELLKSCQHFFIQHKLFAWLNLTPQVATLLLERDNYAGELLKYPFIELLINENYPHLNEGKDNRGLLSLSQVYPLVLGNLGAGNSTMKAVFDGLFTRVMLDKSFIQQQITHRSFEPFIRAIQAQISPCCNCIIAGGIDTAEILAQITPFDFHALQGCLWPAVPINQITTLVQR” here?
Answer: not soluble

Question: For “MIGNLKLKRFEEVNLVLSGGAAKGIAHIGVLKALEELGIKVKRLSGVSAGAIVSVFYASGYTPDEMLKLLKEVNWLKLFKFKTPKMGLMGWEKAAEFLEKELGVKRLEDLNIPTYLCSADLYTGKALYFGRGDLIPVLLGSCSIPGIFEPVEYENFLLVDGGIVNNLPVEPLEKFKEPIIGVDVLPITQERKIKNILHILIRSFFLAVRSNSEKRKEFCNVVIEPPLEEFSPLDVNKADEIFLRGYESTLRIMRNFVKHLEHHHHHH”, which “soluble on expression in E. coli” value is on record?
Answer: not soluble
